Laboratory results published in article PMC2647743 (Bioconjugate chemistry, 2008).
*: point of attachment. DOTA = O=C(O)CN1CCN(CC(=O)O)CCN(CC(=O)*)CCN(CC(=O)O)CC1; Aoc = NCCCCCCCC(=O)O

Target: BB2 receptor (gastrin-releasing peptide receptor) (human (endogenous in PC-3), UniProt P30550 1-384)
Assay: radioligand binding

BB2 receptor (gastrin-releasing peptide receptor), sequence (P30550 whole entry): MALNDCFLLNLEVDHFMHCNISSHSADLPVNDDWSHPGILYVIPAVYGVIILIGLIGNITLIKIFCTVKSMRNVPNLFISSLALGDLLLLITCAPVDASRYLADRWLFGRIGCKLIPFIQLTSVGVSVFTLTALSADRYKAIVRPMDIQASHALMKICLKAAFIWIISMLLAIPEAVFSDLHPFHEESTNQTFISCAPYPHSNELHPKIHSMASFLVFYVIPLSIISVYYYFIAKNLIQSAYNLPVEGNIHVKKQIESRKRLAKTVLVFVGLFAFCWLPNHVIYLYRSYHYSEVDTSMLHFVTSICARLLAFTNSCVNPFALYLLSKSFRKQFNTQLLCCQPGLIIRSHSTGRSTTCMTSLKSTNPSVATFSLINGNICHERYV

B1: DOTA-8-AOC-NONSENSE (peptide)
peptide: {DOTA-Aoc}-HMGWLAQV-NH2
SMILES: CSCC[C@H](NC(=O)[C@H](Cc1c[nH]cn1)NC(=O)CCCCCCCNC(=O)CN1CCN(CC(=O)O)CCN(CC(=O)O)CCN(CC(=O)O)CC1)C(=O)NCC(=O)N[C@@H](Cc1c[nH]c2ccccc12)C(=O)N[C@@H](CC(C)C)C(=O)N[C@@H](C)C(=O)N[C@@H](CCC(N)=O)C(=O)N[C@H](C(N)=O)C(C)C
IC50: > 10 µM

B2: In-DOTA-8-AOC-NONSENSE (peptide)
peptide: {DOTA-Aoc}-HMGWLAQV-NH2
modifications: also: In complex of DOTA
IC50: > 10 µM
